B1: library; numbered along this chain (parent)
chain: MRKPRAAVGSGHRKQAASQEGRQKHAKNNSQAKPSACDGLARQPEEVVLQASVSSYHLFRDVAEVTAFRGSLLSWYDQEKRDLPWRRRAEDEMDLDRRAYAVWVSEVMLQQTQVATVINYYTGWMQKWPTLQDLASASLEEVNQLWAGLGYYSRGRRLQEGARKVVEELGGHMPRTAETLQQLLPGVGRYTAGAIASIAFGQATGVVDGNVARVLCRVRAIGADPSSTLVSQQLWGLAQQLVDPARPGDFNQAAMELGATVCTPQRPLCSQCPVESLCRARQRVEQEQLLASGSLSGSPDVEECAPNTGQCHLCLPPSEPWDQTLGVVNFPRKASRKPPREESSATCVLEQPGALGAQILLVQRPNSGLLAGLWEFPSVTWEPSEQLQRKALLQELQRWAGPLPATHLRHLGEVVHTFSHIKLTYQVYGLALEGQTPVTTVPPGARWLTQEEFHTAAVSTAMKKVFRVYQGQQPGTCMGSKRSQVSSPCSRKKPRMGQQVLDNFFRSHISTDAHSLNSAAQ

Variants of: B1
Assay: 8OG:A repair function score (normalized; synonymous = 0, nonsense = -1) (normalized log-likelihood score); higher = more repair activity (WT-like)
Conditions: with 8OG:A DNA repair reporter (GFP) in HEK-293 MUTYH KO cells
Description: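 Saturation mutagenesis (NNN codon scan) of the MUTYH cDNA (521-aa nuclear isoform NM_001048174.1 / NP_001041639), stably expressed under doxycycline induction in HEK-293 MUTYH knockout cells. Cells were co-transfected with an 8OG:A-bearing GFP repair reporter plus mCherry and sorted 72 h later into GFP+ and GFP− bins, three replicates per tile. The Rosace log2 enrichment (GFP+ vs GFP−) was converted per tile to a normalized function score with synonymous variants centered at 0 and nonsense variants (codons 1-471) at -1; low-abundance variants were removed.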

8OG:A repair function score of substitutions, site by site:
A192: Y -1.07 | Q -1.03 | W -1.16 | D -0.927 | I -1.07 | M -0.964 | C -0.572 | G -0.105 | E -0.908 | S -0.166 | T -1.07 | H -0.926 | K -1.07 | V -0.943 | P -1.17 | L -1.11 | R -0.901 | F -1.12 | N -0.876
G201: T -0.23 | A -0.14 | D -0.0211 | P -1.06 | K 0.012 | N 0.0301 | M -0.244 | L -0.298 | Y -0.227 | E -0.32 | S -0.0385 | V -0.331 | W -0.353 | Q 0.039 | I -0.543 | R -0.0601 | H 0.0082 | C -0.103 | F -0.266
F200: H -0.308 | K -0.874 | Y 0.0681 | R -0.97 | I -0.505 | T -0.739 | L -0.252 | M 0.0616 | Q -0.502 | D -0.891 | W -0.182 | C -0.266 | V -0.545 | A -0.576 | S -0.54 | E -0.847 | P -1.02 | G -0.582 | N -0.427
V207: A -0.78 | C -0.542
A199: Q -1.11 | D -1.07 | C 0.000923 | E -1.06 | K -1.14 | T -0.214 | L -1.01 | W -0.8 | F -1.13 | H -0.874 | S -0.171 | P -1.07 | M -0.87 | G -0.183 | I -0.536 | V -0.155 | N -0.885 | R -1.16 | Y -1.05
R189: Y -0.336 | N -0.421 | K -0.0681 | M -0.341 | W -0.343 | V -0.148 | P 0.136 | L -0.316 | T -0.184 | Q -0.208 | S -0.0964
Q202: G -0.395 | M -0.234 | P -0.931 | S -0.0817 | E -0.0729 | C 0.0136 | N -0.274 | W -0.586 | T -0.198 | K 0.0342 | L -0.163 | R -0.0857 | D 0.0238 | A 0.00201 | V -0.0323 | H -0.0825 | F -0.471 | I -0.0774 | Y -0.329
T204: F -0.0751 | W -0.109 | A -0.0766 | V 0.0534 | R -0.0298 | L -0.0721 | E 0.00943 | G -0.452 | M -0.111 | D -0.103 | Q -0.045 | C 0.0932 | Y -0.127 | P -0.903 | I 0.0296 | N -0.117 | S -0.127 | K 0.0186 | H -0.234
V206: N -0.923 | C -0.0127 | S -0.585 | Q -0.927 | R -1.01 | D -1.02 | M -0.563 | I -0.0438 | P -0.905 | L -0.338 | G -0.835 | A -0.219 | W -1.03 | H -1.02 | F -0.894 | Y -1.01 | K -1.01 | E -1.01 | T -0.338
Y190: W -0.479 | D -0.858 | G -0.381 | F -0.574 | K -1.27 | C -0.373 | S -0.22 | L -0.851 | A -0.38 | E -0.808 | N -0.443 | V -0.566 | R -1.06 | P -0.905 | I -0.823 | Q -0.567 | H -0.198 | T -0.419 | M -0.762
G193: L -0.637 | D -0.37 | F -0.465 | Q -0.238 | P -0.524 | N 0.0644 | S 0.0283 | T -0.169 | K -0.203 | M -0.156 | R -0.0604 | H -0.0997 | C 0.0546 | W -0.832 | Y -0.241 | A -0.0458 | I -0.531 | E -0.722 | V -0.346
I198: T -0.36 | E -0.552 | Q -0.466 | R -0.575 | K -1.06 | N -0.562 | A -0.548 | H -0.963 | V -0.254 | G -1.05 | L -0.391 | M -0.189 | P -0.841 | C -0.474 | F -0.447 | Y -0.792 | D -1.1 | S -0.757
G205: H -0.8 | M -0.711 | K -0.961 | L -1.03 | F -0.891 | D -0.933 | A -0.145 | R -0.953 | W -0.894 | T -0.773 | N -0.947 | P 0.0348 | S -0.352 | I -0.994 | E -0.592 | Q -0.764 | C -0.378 | V -0.876 | Y -0.873
A196: N -0.697 | R -0.93 | D -0.616 | P -1.11 | F -0.939 | H -0.673 | C -0.233 | S 0.00714 | V -0.382 | E -0.674 | M -0.507 | G -0.309 | T -0.342 | K -0.993 | W -1.18 | Q -0.897 | L -0.68 | I -0.703 | Y -0.723
T191: I -0.0338 | G -0.428 | F -1.01 | Q -0.768 | V -0.236 | H -0.486 | C -0.351 | Y -1.07 | P -0.924 | E -0.898 | L -0.585 | R -1.16 | M -0.127 | A -0.325 | W -1.2 | N -0.68 | K -1.26 | S -0.16 | D -1.01
A203: D -0.191 | E -0.0816 | H 0.0237 | M -0.0505 | R 0.00374 | N -0.000873 | Y -0.245 | G -0.165 | P 0.109 | F -0.255 | V 0.0414 | Q 0.0356 | K 0.0825 | S -0.0724 | C -0.101 | W -0.183 | T 0.03 | I 0.0319 | L -0.0917
I195: N -1.12 | P -1.04 | A -0.996 | Q -1.01 | E -1.06 | D -1.1 | W -0.908 | Y -0.741 | R -1.02 | H -1.14 | C -0.59 | M -0.23 | G -0.964 | F -1.08 | S -0.944 | K -1.05 | T -0.534 | L -0.287 | V -0.0879
A194: M -0.32 | L -0.733 | R -1.1 | T -0.422 | V -0.443 | I -0.291 | P -1.06 | K -1.06 | E -0.986 | N -0.737 | W -1.05 | C -0.313 | D -1.03 | G -0.624 | F -1.16 | Q -0.577 | S -0.169 | H -1.31 | Y -1.23
S197: N -1.17 | A -0.271 | L -1.13 | C -0.73 | R -1.21 | W -1.37 | V -0.973 | D -1.04 | I -0.959 | P -1.3 | Q -1.14 | T -0.695 | G -0.747 | E -0.903 | H -1.22 | K -1 | Y -0.898 | F -0.956

— the supplement of paper PMC11908140
